Experimental data from publication PMC6995573, “Critical Factors in Human Antizymes that Determine the Differential Binding, Inhibition, and Degradation of Human Ornithine Decarboxylase” (Biomolecules, 2019).

T1: Human ornithine decarboxylase (human, UniProt P11926 2-421)
T1 sequence: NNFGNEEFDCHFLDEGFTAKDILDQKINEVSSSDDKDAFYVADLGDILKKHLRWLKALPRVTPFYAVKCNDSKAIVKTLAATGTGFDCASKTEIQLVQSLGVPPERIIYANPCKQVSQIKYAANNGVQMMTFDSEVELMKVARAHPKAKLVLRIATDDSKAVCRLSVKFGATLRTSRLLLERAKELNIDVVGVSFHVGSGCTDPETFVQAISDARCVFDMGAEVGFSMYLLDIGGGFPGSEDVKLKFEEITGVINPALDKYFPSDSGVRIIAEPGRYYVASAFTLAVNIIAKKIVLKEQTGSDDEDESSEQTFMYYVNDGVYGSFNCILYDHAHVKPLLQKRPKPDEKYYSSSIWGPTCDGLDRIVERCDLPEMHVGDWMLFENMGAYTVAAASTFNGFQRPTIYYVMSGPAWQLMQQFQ

B1: AZ3_WT (natural protein, human, UniProt Q9UMX2 1-235, looked up)
chain: MPCKRCRPSVYSLSYIKRGKTRNYLYPIWSPYAYYLYCYKYRITLREKMLPRCYKSITYKEEEDLTLQPRSCLQCSESLVGLQEGKSTEQGNHDQLKELYSAGNLTVLATDPLLHQDPVQLDFHFRLTSQTSAHWHGLLCDRRLFLDIPYQALDQGNRESLTATLEYVEEKTNVDSVFVNFQNDRNDRGALLRAFSYMGFEVVRPDHPALPPLDNVIFMVYPLERDVGHLPSEPP
notes: antizyme 3 (AZ3), human; also called antizyme 3
B2: AZ1_D124S/E150Q/Q166K/N179D (natural protein)
chain: not shown
notes: antizyme 1 (AZ1), human; also called AZ1_4M
B3: AZ1_D124S/E150Q/Q166K/H171S/N179D (natural protein)
chain: not shown
notes: antizyme 1 (AZ1), human; also called AZ1_5M; AZ1_D124S/E150Q/Q166K/N179D/H171S
B4: AZ1_WT (natural protein)
chain: not shown
notes: antizyme 1 (AZ1), human; also called antizyme 1
B5: AZ_(95–228) (domain or fragment)
chain: not shown
notes: also called C-terminal domain of AZ1
B6: AZ_(95–228)_D154A (domain or fragment)
chain: not shown
B7: AZ_(95–228)_H171A (domain or fragment)
chain: not shown
B8: AZ_(95–228)_K178A (domain or fragment)
chain: not shown
B9: AZ_(95–228)_K153A/E164A/E165A (domain or fragment)
chain: not shown
B10: AZ_(95–228)_E142A (domain or fragment)
chain: not shown
B11: AZ_(95–228)_E142A/H171A/K178A (domain or fragment)
chain: not shown
notes: also called non-α1 mutant
B12: AZ_(95–228)_K153A/D154A/E161A/E164A/E165A (domain or fragment)
chain: not shown
B13: AZ_(95–228)_K153A (domain or fragment)
chain: not shown
B14: AZ_(95–228)_E165A (domain or fragment)
chain: not shown
B15: AZ_(95–228)_E161A (domain or fragment)
chain: not shown
B16: AZ_(95–228)_E164A (domain or fragment)
chain: not shown
B17: AZ_(95–228)_E142A/K153A/D154A/E161A/E164A/E165A/H171A/K178A (domain or fragment)
chain: not shown
notes: also called hybrid octuple mutant

These binders were tested against T1, Human ornithine decarboxylase (assay: cell-based or functional assay). Conditions: not given.
With B1 the “IC50 of inhibition of ODC enzyme activity by AZ” value (“IC50 of inhibition … by AZ” below) was 610 nM.

Each binder was assayed against T1, Human ornithine decarboxylase (assay: AUC; sedimentation velocity, 20 °C, 30 mM Tris-HCl pH 7.4, 25 mM NaCl; ODC fixed at 0.3 mg/mL, AZ 0.02-0.19 mg/mL (AZ/ODC molar ratio 0.25 to 3); all data sets fitted to the AB hetero-association model in SEDPHAT). Conditions: both partners purified.
B1 showed a Kd of 1520 ± 10 nM. Work on B2 yielded a Kd of 950 ± 30 nM. With B3 the Kd was 1780 ± 20 nM. B4 showed a Kd of 220 ± 10 nM.

Target: T1, Human ornithine decarboxylase
Assay: as above
Conditions: both partners purified
Remark: another data set of the same source
Work on B5 yielded a Kd of 1150 ± 10 nM. With B6 the Kd was 1700 ± 20 nM. Binder B7 has a Kd of 2030 ± 20 nM. For B8, the Kd was 3030 ± 20 nM. Binder B9 has a Kd of 6580 ± 20 nM. With B10 the Kd was 2200 ± 20 nM. With B11 the Kd was 11500 ± 600 nM. In the case of B12, the Kd is reported as 6810 ± 60 nM. With B13 the Kd was 1210 ± 10 nM. With B14 the Kd was 1730 ± 20 nM. B15 gave a Kd of 1110 ± 10 nM. With B16 the Kd was 1680 ± 10 nM. In the case of B17, the Kd is reported as 12400 ± 700 nM.

Target: T1, Human ornithine decarboxylase
Assay: cell-based or functional assay
Conditions: not given
Remark: another data set of the same source
In the case of B5, the “IC50 of inhibition … by AZ” value is reported as 160 nM. For B6, the “IC50 of inhibition … by AZ” value was 270 nM. For B7, the “IC50 of inhibition … by AZ” value was 270 nM. In the case of B8, the “IC50 of inhibition … by AZ” value is reported as 310 nM. In the case of B9, the “IC50 of inhibition … by AZ” value is reported as 4130 nM. For B10, the “IC50 of inhibition … by AZ” value was 310 nM. B13 was tested, and the “IC50 of inhibition … by AZ” value was 400 nM. For B14, the “IC50 of inhibition … by AZ” value was 300 nM. B15 was tested, and the “IC50 of inhibition … by AZ” value was 250 nM. With B16 the “IC50 of inhibition … by AZ” value was 300 nM.

Target: T1, Human ornithine decarboxylase
Assay: cell-based or functional assay
Conditions: not given
Remark: another data set of the same source
B2 was tested, and the “IC50 of inhibition … by AZ” value was 550 nM. In the case of B3, the “IC50 of inhibition … by AZ” value is reported as 490 nM. For B4, the “IC50 of inhibition … by AZ” value was 230 nM.
